Experimental data: PMC10653379

Biological target: eIF3a-HA (Trypanosoma brucei (endogenous in procyclic form strain 29-13))
Test: proximity ligation

DRBD18 (natural protein)
PLA dots per cell (dots per cell): 8
